Earlier results, collected in PMC6275225.

Biological target: LFA-3 (Homo sapiens) (UniProt P19256)
Chain of UniProt P19256 (P19256 29-215): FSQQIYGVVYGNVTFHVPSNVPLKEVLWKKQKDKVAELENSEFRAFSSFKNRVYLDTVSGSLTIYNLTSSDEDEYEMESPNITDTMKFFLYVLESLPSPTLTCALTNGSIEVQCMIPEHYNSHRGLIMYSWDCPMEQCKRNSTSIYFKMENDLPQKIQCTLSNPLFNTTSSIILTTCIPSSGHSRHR

Kd: 15 µM
Substance: CD2 (from UniProt P06729)
